{"source": "patent US20220143148A1", "about": "“COMPOSITIONS AND METHODS FOR MODULATING CGRP SIGNALING TO REGULATE INTESTINAL INNATE LYMPHOID CELLS” (The Broad Institute, Inc., priority 2019, published 2022)", "molecules": {"B1": {"name": "OVA (protein, UniProt P01012 2-386, looked up)", "Ovalbumin": "GSIGAASMEFCFDVFKELKVHHANENIFYCPIAIMSALAMVYLGAKDSTRTQINKVVRFDKLPGFGDSIEAQCGTSVNVHSSLRDILNQITKPNDVYSFSLASRLYAEERYPILPEYLQCVKELYRGGLEPINFQTAADQARELINSWVESQTNGIIRNVLQPSSVDSQTAMVLVNAIVFKGLWEKAFKDEDTQAMPFRVTEQESKPVQMMYQIGLFRVASMASEKMKILELPFASGTMSMLVLLPDEVSGLEQLESIINFEKLTEWTSSNVMEERKIKVYLPRMKMEEKYNLTSVLMAMGITDVFSSSANLSGISSAESLKISQAVHAAHAEINEAGREVVGSAEAGVDAASVSEEFRADHPFLFCIKHIATNAVLFFGRCVSP"}}, "tested_on": "small intestinal immune cells", "test": "Droplet-based scRNA-seq of small intestinal immune cells (LP and PP), OVA vs PBS, clustering and differential expression", "type": "in vivo, mouse", "conditions": "PP; cluster ID 8; OVA vs PBS", "source_text": "To comprehensively characterize small intestinal immune cells, Applicants generated scRNA-Seq profiles for 58,067 immune cells collected from lamina propria (LP) and Peyer's patch (PP) regions at steady state and after induction of a type 2 inflammatory reaction to ovalbumin (OVA) (Brandt et al., 2003) (FIGS. 1A and 8A). To ensure sufficient representation of rare cells, Applicants combined a normalization strategy—removing by flow sorting either a portion of IgD+ naïve B cells, which are the most abundant cell type in PPs, or all CD19+ and CD3+ T cells (FIG. 8B, Methods)—with profiling of a sufficiently large number of cells number (P>0.99 to recover at least 15 cells from each cluster, Methods) by massively parallel scRNA-seq (Haber et al., 2017) (Methods). Applicants obtained 36,797 and 21,270 high quality cells passing initial filtering (Methods) from PP and LP regions, respectively.\nOverall, Applicants annotated 27 cell subsets across the two compartments, spanning T cells, B cells, ILCs, dendritic cells (DCs), myeloid cells and stromal cells, in frequencies ranging from 0.07% to 14%. Briefly, Applicants first partitioned the cells from the PP regions by unsupervised clustering (Methods) into 46 clusters, retained the 97% of cells that were robustly assigned cell identities in each cluster (Methods), assigned the cells from the LP regions to the 46 clusters using a classifier (Methods), and visualized the data with scvis (Ding et al., 2018), a deep generative model-based method (FIGS. 1B and 8C, Methods). Next, Applicants identified genes that were differentially expressed between the cells in each cluster and the remaining cells (Table 1, Methods), as well as between pairs of clusters (Table 2), to elucidate identities of similar cell types/states. Applicants excluded from downstream analysis clusters mostly consisting of contaminants from epithelium, likely doublets, or cells with a small number of Unique Molecular Identifiers (UMIs) (FIGS. 1C and 8D), or lacking distinct markers (Methods). Altogether, Applicants retained 27 clusters spanning 85% of the cells and each associated with distinct marker genes (FIG. 8E, Methods).\nTo induce allergic reaction to OVA, 6 to 7 weeks old mice were sensitized twice, two weeks apart, with 50 μg of OVA plus 1 mg of aluminum potassium sulfate adjuvant via intraperitoneal injection. Two weeks later, mice were orally administered with 50 mg of OVA on every other day for a total of five times. 1 μg of α-CGRP peptide was administered simultaneously when indicated. Mice were deprived of food for 3-4 hours in cages with wood chip bedding for limiting antigen degradation in the stomach before each intragastric challenge.\nIsolation of cells from Peyer's patches (PPs). Peyer's patches (PPs) were carefully dissected from the small intestine under a stereo microscope using a fine scissor, pierced once with a fine forcep. Tissues were digested in freshly made digestion buffer (RPMI-1640 containing 100 μg/ml Liberase™ and 50 μg/ml DNase I at 37° C. on a roto-mixer. After 15 min, tissues were very gently mixed using a 1 ml pipette. The supernatant was collected and added to ice-cold MACS buffer (pH 7.4; PBS plus 2% FCS and 2 mM EDTA). Pre-warmed (37° C.) fresh digestion buffer was added to the remaining tissues. After rotation at 37° C. for 15 min, the mixture was vigorously mixed using a 1 ml pipette for 1 min. Supernatants from the two steps were combined and passed through 70 μm filters and stained for FACS (below).\nIsolation of cells from the lamina propria (LP). The small intestines were opened longitudinally and washed in ice-cold PBS. For scRNA-seq, roughly 0.5 cm of fragments from each of the distal, middle and proximal regions without visible PPs were collected. Epithelial cells were dissociated by tissue rotation in pre-warmed (37° C.) PBS containing 10 mM EDTA at 37° C. for 15 min, followed by additional incubation on ice for 15 min. Tissues were then shaken vigorously. […]"}
{"molecule": "B1", "values": [{"measurement": "Fosl2 LN (average fold change)", "result": "−0.358"}, {"measurement": "Ftl1 LN (average fold change)", "result": "−0.171"}, {"measurement": "Gadd45b LN (average fold change)", "result": "−0.563"}, {"measurement": "Gimap1 LN (average fold change)", "result": 0.283}, {"measurement": "Gimap6 LN (average fold change)", "result": 0.272}, {"measurement": "Gimap9 LN (average fold change)", "result": 0.367}, {"measurement": "Gnai2 LN (average fold change)", "result": "−0.261"}, {"measurement": "Gramd1a LN (average fold change)", "result": 0.460}, {"measurement": "Gramd3 LN (average fold change)", "result": "−0.502"}, {"measurement": "Gzma LN (average fold change)", "result": 0.340}, {"measurement": "H2-K1 LN (average fold change)", "result": 0.192}, {"measurement": "H3f3b LN (average fold change)", "result": "−0.185"}, {"measurement": "Hcst LN (average fold change)", "result": 0.174}, {"measurement": "Hist1h1c LN (average fold change)", "result": 0.586}, {"measurement": "Hist1h1e LN (average fold change)", "result": 1.277}, {"measurement": "Icam1 LN (average fold change)", "result": "−0.819"}, {"measurement": "Id2 LN (average fold change)", "result": 0.467}, {"measurement": "Ier2 LN (average fold change)", "result": "−0.235"}, {"measurement": "Ier5l LN (average fold change)", "result": "−1.422"}, {"measurement": "Ifi203 LN (average fold change)", "result": 0.402}, {"measurement": "Ifrd1 LN (average fold change)", "result": "−0.708"}, {"measurement": "Igha LN (average fold change)", "result": 0.514}, {"measurement": "Igkc LN (average fold change)", "result": 0.390}, {"measurement": "Ikzf2 LN (average fold change)", "result": "−0.467"}, {"measurement": "Il2rg LN (average fold change)", "result": "−0.226"}, {"measurement": "Il16 LN (average fold change)", "result": 0.455}, {"measurement": "Jun LN (average fold change)", "result": 0.210}, {"measurement": "Jund LN (average fold change)", "result": "−0.703"}, {"measurement": "Kdm2b LN (average fold change)", "result": "−0.379"}, {"measurement": "Kdm6b LN (average fold change)", "result": "−0.833"}, {"measurement": "Klf4 LN (average fold change)", "result": "−0.524"}, {"measurement": "Klf6 LN (average fold change)", "result": 0.166}, {"measurement": "Klrb1c LN (average fold change)", "result": 0.233}, {"measurement": "Klrb1f LN (average fold change)", "result": 0.487}, {"measurement": "Klrc1 LN (average fold change)", "result": 0.392}, {"measurement": "Klrc2 LN (average fold change)", "result": 0.396}, {"measurement": "Klrd1 LN (average fold change)", "result": 0.261}, {"measurement": "Klre1 LN (average fold change)", "result": 0.295}, {"measurement": "Klrk1 LN (average fold change)", "result": 0.213}, {"measurement": "Lax1 LN (average fold change)", "result": 0.486}, {"measurement": "Litaf LN (average fold change)", "result": "−0.518"}, {"measurement": "Lmna LN (average fold change)", "result": "−1.022"}, {"measurement": "Maff LN (average fold change)", "result": "−0.445"}, {"measurement": "Mcpt1 LN (average fold change)", "result": 1.756}, {"measurement": "Mir142hg LN (average fold change)", "result": "−0.715"}, {"measurement": "Ms4a4b LN (average fold change)", "result": 0.271}, {"measurement": "Ms4a6b LN (average fold change)", "result": 0.490}, {"measurement": "Myl6 LN (average fold change)", "result": 0.199}, {"measurement": "Nabp1 LN (average fold change)", "result": "−0.167"}, {"measurement": "Ncr1 LN (average fold change)", "result": 0.265}, {"measurement": "Ndel1 LN (average fold change)", "result": "−0.337"}, {"measurement": "Neat1 LN (average fold change)", "result": 0.275}, {"measurement": "Neurl3 LN (average fold change)", "result": "−0.244"}, {"measurement": "Nfil3 LN (average fold change)", "result": 0.490}, {"measurement": "Nfkb1 LN (average fold change)", "result": "−0.244"}, {"measurement": "Nfkbia LN (average fold change)", "result": "−0.579"}, {"measurement": "Nfkbid LN (average fold change)", "result": "−1.010"}, {"measurement": "Nfkbie LN (average fold change)", "result": "−0.483"}, {"measurement": "Nfkbiz LN (average fold change)", "result": "−0.640"}, {"measurement": "Ninj1 LN (average fold change)", "result": "−0.512"}, {"measurement": "Nkg7 LN (average fold change)", "result": 0.194}, {"measurement": "Nr4a1 LN (average fold change)", "result": "−0.415"}, {"measurement": "Nr4a2 LN (average fold change)", "result": "−0.530"}, {"measurement": "Nr4a3 LN (average fold change)", "result": "−0.808"}, {"measurement": "Odc1 LN (average fold change)", "result": "−0.540"}, {"measurement": "P2ry10 LN (average fold change)", "result": "−0.196"}, {"measurement": "Phlda1 LN (average fold change)", "result": "−0.867"}, {"measurement": "Pim1 LN (average fold change)", "result": "−0.358"}, {"measurement": "Pnrc1 LN (average fold change)", "result": "−0.302"}, {"measurement": "Ppp1r15a LN (average fold change)", "result": "−0.355"}, {"measurement": "Ppp1r16b LN (average fold change)", "result": "−0.367"}, {"measurement": "Ppp3cc LN (average fold change)", "result": 0.528}, {"measurement": "Prr7 LN (average fold change)", "result": "−0.910"}, {"measurement": "Ptp4a2 LN (average fold change)", "result": "−0.243"}]}
